Target: the molecule itself
Test: AUC; sedimentation velocity, 60000 rpm, 20°C, buffer F (50 mM Na2HPO4-NaH2PO4/pH 7.5), protein at 0.6 and 1.0 mg/mL, absorption at 238 nm

B1: Mth10b from Methanobacterium thermoautotrophicum ΔH (natural protein, UniProt O27527 2-91, looked up)
chain: SEENVVYIGNKPVMNYVLAVVTQMNGGTSEVILKARGIAISRAVDVAEIVRNRFIPDIQIENIDICTEEIIGNEGTATNVSAIEIQLRKD
notes: Mth10b, Sac10b family protein of Methanobacterium thermoautotrophicum ΔH, gene MTH1483; whole gene cloned with primers from the start codon to the stop codon; No tag (pET11a, NdeI/BamHI); also called MTH1483; source: Escherichia coli BL21 (DE3), pET11a, purified (Q Sepharose Fast Flow, Phenyl Sepharose High Performance, Resource-S)
- stoichiometry N: 2
